Laboratory results taken from US20230382997A1 (published 2023).
Each block holds one binder with its values, some of them ahead of it.

Tests used:
Experiment in all cases: multimer staining
[1] = molecular target: T1, MAGE A3 peptide on HLA-A*01:01 (human)
T1 peptide: EVDPIGHLY

[2] = molecular target: T2, CT 83 peptide on HLA-A*02:01 (human)
T2 peptide: LLASSILCA

[3] = molecular target: T3, MAGE B2 peptide on HLA-A*02:01 (human)
T3 peptide: GVYDGEEHSV

[4] = molecular target: T4, CT 83 peptide on HLA-B*44:02 (human)
T4 peptide: GEMSSNSTAL

binding result [1]: recognises
B1: TCR54 (TCR, V domains shown)
Valpha: EDQVTQSPEALRLQEGESSSLNCSYTVSGLRGLFWYRQDPGKGPEFLFTLYSAGEEKEKERLKATLTKKESFLHITAPKPEDSATYLCAVYNQAGTALIFGKGTTLSVSS
Vbeta: EAQVTQNPRYLITVTGKKLTVTCSQNMNHEYMSWYRQDPGLGLRQIYYSMNVEVTDKGDVPEGYKVSRKEKRNFPLILESPSPNQTSLYFCASSLYSTDTQYFGPGTRLTVL

binding result [2]: recognises
B2: TCR19 (TCR, V domains shown)
Valpha: AQKVTQAQTEISVVEKEDVTLDCVYETRDTTYYLFWYKQPPSGELVFLIRRNSFDEQNEISGRYSWNFQKSTSSFNFTITASQVVDSAVYFCALLSSGGYNKLIFGAGTRLAVHP
Vbeta: NAGVTQTPKFQVLKTGQSMTLQCAQDMNHEYMSWYRQDPGMGLRLIHYSVGAGITDQGEVPNGYNVSRSTTEDFPLRLLSAAPSQTSVYFCASSYLSPAAGFSYEQYFGPGTRLTVT

binding result [1]: recognises
B3: TCR4 (TCR, V domains shown)
Valpha: AQSVAQPEDQVNVAEGNPLTVKCTYSVSGNPYLFWYVQYPNRGLQFLLKYITGDNLVKGSYGFEAEFNKSQTSFHLKKPSALVSDSALYFCAVRDAMGGSYIPTFGRGTSLIVHP
Vbeta: DGGITQSPKYLFRKEGQNVTLSCEQNLNHDAMYWYRQDPGQGLRLIYYSQIVNDFQKGDIAEGYSVSREKKESFPLTVTSAQKNPTAFYLCASSTGISEQFFGPGTRLTVL

binding result [3]: recognises
B4: TCR28 (TCR, V domains shown)
Valpha: AQKITQTQPGMFVQEKEAVTLDCTYDTSDQSYGLFWYKQPSSGEMIFLIYQGSYDEQNATEGRYSLNFQKARKSANLVISASQLGDSAMYFCAMRGDPQGAQKLVFGQGTRLTINP
Vbeta: ETGVTQTPRHLVMGMTNKKSLKCEQHLGHNAMYWYKQSAKKPLELMFVYSLEERVENNSVPSRFSPECPNSSHLFLHLHTLQPEDSALYLCASSQGRGKNIQYFGAGTRLSVL

binding result [4]: recognises
B5: TCR29 (TCR, V domains shown)
Valpha: AQKVTQAQTEISVVEKEDVTLDCVYETRDTTYYLFWYKQPPSGELVFLIRRNSFDEQNEISGRYSWNFQKSTSSFNFTITASQVVDSAVYFCALSEAWGNAGNMLTFGGGTRLMVKP
Vbeta: GAGVSQSPRYKVTKRGQDVALRCDPISGHVSLYWYRQALGQGPEFLTYFNYEAQQDKSGLPNDRFSAERPEGSISTLTIQRTEQRDSAMYRCASSPGQQNTEAFFGQGTRLTVV

binding result [4]: recognises
B6: TCR32 (TCR, V domains shown)
Valpha: ILNVEQSPQSLHVQEGDSTNFTCSFPSSNFYALHWYRWETAKSPEALFVMTLNGDEKKKGRISATLNTKEGYSYLYIKGSQPEDSATYLCAFIVHQAGTALIFGKGTTLSVSS
Vbeta: GAGVSQSPRYKVTKRGQDVALRCDPISGHVSLYWYRQALGQGPEFLTYFNYEAQQDKSGLPNDRFSAERPEGSISTLTIQRTEQRDSAMYRCASSLGLLYNEQFFGPGTRLTVL

binding result [1]: recognises
B7: TCR346 (TCR)
alpha TRAV29DV5 TRAJ48 CDR3: CAARDISNFGNEKLTF
Vbeta: GAVVSQHPSRVICKSGTSVKIECRSLDFQATTMFWYRQFPKQSLMLMATSNEGSKATYEQGVEKDKFLINHASLTLSTLTVTSAHPEDSSFYICSARDHTSGTYEQYFGPGTRLTVT

binding result [2]: recognises
B8: TCR22 (TCR, V domains shown)
Valpha: AQSVAQPEDQVNVAEGNPLTVKCTYSVSGNPYLFWYVQYPNRGLQFLLKYITGDNLVKGSYGFEAEFNKSQTSFHLKKPSALVSDSALYFCAVRDDNAGNMLTFGGGTRLMVKP
Vbeta: DTGVSQNPRHKITKRGQNVTFRCDPISEHNRLYWYRQTLGQGPEFLTYFQNEAQLEKSRLLSDRFSAERPKGSFSTLEIQRTEQGDSAMYLCASSLANTGELFFGEGSRLTVL

binding result [1]: recognises
B9: TCR2 (TCR, V domains shown)
Valpha: ILNVEQSPQSLHVQEGDSTNFTCSFPSSNFYALHWYRWETAKSPEALFVMTLNGDEKKKGRISATLNTKEGYSYLYIKGSQPEDSATYLCAFSNARLMFGDGTQLVVKP
Vbeta: DTAVSQTPKYLVTQMGNDKSIKCEQNLGHDTMYWYKQDSKKFLKIMFSYNNKELIINETVPNRFSPKSPDKAHLNLHINSLELGDSAVYFCASSQEAGTGSYNEQFFGPGTRLTVL

binding result [2]: recognises
B10: TCR18 (TCR, V domains shown)
Valpha: AQTVTQSQPEMSVQEAETVTLSCTYDTSESDYYLFWYKQPPSRQMILVIRQEAYKQQNATENRFSVNFQKAAKSFSLKISDSQLGDAAMYFCAYRDNFNKFYFGSGTKLNVKP
Vbeta: DSGVTQTPKHLITATGQRVTLRCSPRSGDLSVYWYQQSLDQGLQFLIQYYNGEERAKGNILERFSAQQFPDLHSELNLSSLELGDSALYFCASSGTGGAYNEQFFGPGTRLTVL

binding result [4]: recognises
B11: TCR30 (TCR, V domains shown)
Valpha: EDKVVQSPLSLVVHEGDTVTLNCSYEVTNFRSLLWYKQEKKAPTFLFMLTSSGIEKKSGRLSSILDKKELFSILNITATQTGDSAVYLCAVVPDNTDKLIFGTGTRLQVFP
Vbeta: GAGVSQSPRYKVTKRGQDVALRCDPISGHVSLYWYRQALGQGPEFLTYFNYEAQQDKSGLPNDRFSAERPEGSISTLTIQRTEQRDSAMYRCASSWGGSNTGELFFGEGSRLTVL

binding result [4]: recognises
B12: TCR33 (TCR, V domains shown)
Valpha: AQSVTQLGSHVSVSEGALVLLRCNYSSSVPPYLFWYVQYPNQGLQLLLKYTSAATLVKGINGFEAEFKKSETSFHLTKPSAHMSDAAEYFCAVSDSSYKLIFGSGTRLLVRP
Vbeta: DAGVIQSPRHEVTEMGQEVTLRCKPISGHDYLFWYRQTMMRGLELLIYFNNNVPIDDSGMPEDRFSAKMPNASFSTLKIQPSEPRDSAVYFCASQSGDTQYFGPGTRLTVL

binding result [2]: recognises
B13: TCR23 (TCR, V domains shown)
Valpha: LAKTTQPISMDSYEGQEVNITCSHNNIATNDYITWYQQFPSQGPRFIIQGYKTKVTNEVASLFIPADRKSSTLSLPRVSLSDTAVYYCLVGDIPSVDGGFKTIFGAGTRLFVKA
Vbeta: EAQVTQNPRYLITVTGKKLTVTCSQNMNHEYMSWYRQDPGLGLRQIYYSMNVEVTDKGDVPEGYKVSRKEKRNFPLILESPSPNQTSLYFCASSTSLELDQPQHFGDGTRLSIL

binding result [3]: recognises
B14: TCR26 (TCR, V domains shown)
Valpha: GENVEQHPSTLSVQEGDSAVIKCTYSDSASNYFPWYKQELGKRPQLIIDIRSNVGEKKDQRIAVTLNKTAKHFSLHITETQPEDSAVYFCAASSLREGYSTLTFGKGTMLLVSP
Vbeta: NAGVTQTPKFRVLKTGQSMTLLCAQDMNHEYMYWYRQDPGMGLRLIHYSVGEGTTAKGEVPDGYNVSRLKKQNFLLGLESAAPSQTSVYFCASSSTDLNEQFFGPGTRLTVL
